Measurements from US20250197490A1, “ANTI-CORTICOTROPIN-RELEASING HORMONE ANTIBODIES AND USE IN CONGENITAL ADRENAL HYPERPLASIA” (HBM ALPHA THERAPEUTICS, INC., priority 2021, published 2025).
Numbering of substitutions follows the chain as printed. “Also recorded” adds a separate entry of the source.

B1: PR302038: humanized variant of PR301777; VH SEQ ID NO: 256, VL SEQ ID NO: 311 (antibody, V domains shown)
VH: EMQLVESGGGLVQPGGSLRLSCAASGFTFSNYWMNWVRQAPGKGLEWVAEIRLKSNNYATHYAESVKGRFTISRDDSKSSVYLQMNSLKTEDTAVYYCTVGTLVYWGQGTLVTVSS
VL: EIVLTQSPATLSLSPGERATLSCRASQSVSTSTYNYMHWFQQKPGQAPRLLIKFASNLESGIPARFSGSGSGTDFTLTISSLEPEDTAVYYCQHSWEIPYTFGQGTKLEIK
modifications: PR302036 VH, PR302038 VH, PR302041 VH; PR302031 VL, PR302038 VL, PR302045 VL, PR302052 VL, PR302066 VL
B2: PR302334-26: Series 9 humanized variant of PR302334; VH SEQ ID NO: 277, VL SEQ ID NO: 328 (antibody, V domains shown)
VH: EVQLVESGGGLVQPGGSLRLSCAASGFTFSTYAMSWVRQAPGKGLEWVASIRSGGTTYYPDSVKGRFTISRDNSKNSLYLQMNSLRAEDTAVYYCTRGIDWGQGTTVTVSS
VL: DIVMTQSPDSLAVSLGERATINCKASQSVNNDVAWYQQKPGQPPRLLIYYASNRYTGVPDRFSGSGSGTDFTLTISSLQAEDLAVYFCQQDYSSWTFGGGTKVEIK
modifications: PR302334-18 VH, PR302334-26 VH, PR302334-27 VH; PR302334-10 VL, PR302334-24 VL, PR302334-26 VL, PR302334-4 VL
B3: PR302334-24: humanized variant of PR302334; VH SEQ ID NO: 275, VL SEQ ID NO: 328 (antibody, V domains shown)
VH: B2 VH with Q13K, S74A
VL: B2 VL
modifications: PR302334-16 VH, PR302334-24 VH, PR302334-25 VH; PR302334-10 VL, PR302334-24 VL, PR302334-26 VL, PR302334-4 VL

Legend:
Mrap1 KO mice = Mrap1 KO mice constitutively high ACTH model; type: in vivo, mouse; conditions: for plasma ACTH concentration in Mrap1 KO mice: single dose of mAb 20 mg/kg
human UCN1 = molecular target: T1, human UCN1 (Homo sapiens, UniProt P55089); test: Human UCN1 ELISA binding; conditions: in words
T1 sequence (P55089 83-122 limits assumed): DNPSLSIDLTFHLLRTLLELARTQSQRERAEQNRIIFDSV
Experimental: Streptavidin (Thermo, Cat: 21125) was diluted in PBS to a concentration of 2 μg/ml. 100 μl of diluted streptavidin was added per well to ELISA microplates, and the plates were incubated overnight at 4° C. Plates were blocked with ELISA blocking solution (containing 2% w/v BSA, 0.05% (v/v) Tween-20, pH 7.4 PBS buffer) at 37° C. for 1 hour, and then incubated with 0.5 μg/mL CRH (NT biotin), 0.5 μg/mL CRH (CT biotin), 1 μg/mL human UCN1 (NT biotin), or 1 μg/mL human UCN1 (CT biotin) for 1 hour at 37° C. Plates were then washed and incubated with diluted anti-CRH antibody (Ab) at 15 μg/ml (100 nM, 10 diluted, 8 points) for 1 hour at 37° C. Subsequently, plates were washed and incubated with HRP-conjugated goat anti-human IgG (H+L) antibody (Jackson, Cat: 109-035-088) at 37° C. for 1 hour. […] 100 μL of ELISA stopping solution (Solarbio, Cat #: C1058) was added to terminate the reaction, and the optical density at 450 nm (OD450 nm) was determined by an ELISA plate reader (Molecular Devices, Spectra max 384 plus).
Streptavidin (Thermo, Cat: 21125) was diluted in PBS with a concentration of 2 μg/mL. […] 100 μL of ELISA stopping solution (Solarbio, Cat #: C1058) was then added to terminate the reaction, and the OD450 nm was determined by an ELISA plate reader (Molecular Devices, Spectra max 384 plus).

[1] = test system: wildtype female C57BL/6 mice; test: Wildtype mice restraint-stress model (ACTH and corticosterone); type: in vivo, mouse
Experimental: 8-10 week old wildtype female C57BL/6 mice were obtained from Charles River Laboratories. Mrap1 KO mice were obtained from Queen Mary University of London, UK. SSR125543A, a small molecule CRHR1 antagonist, was obtained from Axon Medchem (Cat #Axon 1799). Mouse Corticosterone (55-Corms-E01) and adrenocorticotropic hormone (ACTH) ELISA kits (21-ACTHU-E01) were obtained from ALPCO, USA. All procedures were carried out in accordance with the Guide for the Care and Use of Laboratory Animals of the National Institutes of Health. Protocols were approved by Charles River Laboratories Institutional Animal Care and Use Committee (IACUC).
To determine the effect of nonpainful physical restraint upon stress responses, mice were restrained in 50 ml polypropylene ventilated tubes in which the tip was cut off with a razor blade to allow the mouse to breathe easily for 15-20 minutes. A mouse was directed to the open tube and crawled in. A piece of paper towel was put behind the mouse so that it could not back out, and the cap was screwed on. The mouse was placed back in its cage, ventral size down on the bedding. This stressor is not considered painful, as mice are confined to a limited space (in a ventilated restraint tube) but not in an unnatural physical position. The investigator was present in the room during the entire procedure. At the end of the procedure, the mouse was removed by the tail.
On day 1, each mouse was injected intraperitoneally with 20 mg/kg of anti-CRH mAbs, hIgG1 or PBS (5 mice per group). On day 2 or 3, and 14 each mouse was subjected to physical restraint-stress described above for 15 or 20 min. Immediately after restraint-stress, 200 μl of blood was collected in EDTA tubes from the submandibular vein of each mouse. Plasma was separated using a refrigerated centrifuge (4° C. at 500×g for 10 min) and snap-frozen in dry ice for subsequent ACTH and corticosterone ELISA measurement.
On day 1, one half of mice were injected IP with 20 mg/kg of anti-CRH Ab or hIgG1 (5 mice per group). […]

| Molecule | plasma ACTH concentrations in Mrap1 KO mice, dose dependent (Mrap1 KO mice; 20 mg/kg and 5 mg/kg, day 2 and day 16) | plasma ACTH concentration in Mrap1 KO mice (Mrap1 KO mice) | binding to human UCN1 peptides in ELISA (human UCN1) | efficacy versus SSR125543A in reducing plasma ACTH levels (Mrap1 KO mice; Mrap1 KO mice, PR302064 20 mg/kg, PR302334-24 20, 10 and 5 mg/kg, SSR125543A 30 mg/kg) | extent of inhibition of ACTH versus SSR125543A (Mrap1 KO mice; Mrap1 KO mice, SSR125543A 30 mg/kg) | duration of the effects of the mAb ([1]; wildtype mice restraint model) | extent of inhibition of ACTH and corticosterone versus SSR125543A ([1]; wildtype mice restraint model, SSR125543A 30 mg/kg) | efficacy versus SSR125543A in reducing plasma ACTH and corticosterone levels ([1]; wildtype mice restraint stress, mAb 20 mg/kg and 5 mg/kg, SSR125543A 30 mg/kg) |
| --- | --- | --- | --- | --- | --- | --- | --- | --- |
| B1 | reduced | – | – | – | – | – | – | – |
| B2 | – | markedly reduced | except for PR302334-26, bound to human UCN1 peptides | – | – | – | – | – |
| B3 | – | significantly reduced | – | more efficacious; also recorded: superior efficacy | more complete inhibition | at least 17 days | more complete inhibition | more efficacious; also recorded: superior efficacy |
